In the supplement of paper PMC9732359:
± gives the uncertainty stated by the source.

Test: protein stability index of a GFP-peptide fusion (yeast GPS) (PSI 1-4); higher = more stable; sorted into four equal gates, so the index is relative within each strain
Settings: doa10∆
Procedure, shortened: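 Yeast carrying a pooled library were grown to mid-log phase in leucine-free medium. Each library plasmid expresses Cherry and has a tiled 17-residue yeast protein peptide fused downstream of GFP. Cells were sorted into four equal gates by GFP/Cherry ratio, and plasmids from each gate were PCR-amplified, Illumina-sequenced and assigned to strains by barcode. Summing, across gates, the read frequency times the gate number gave each peptide's protein stability index.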

Sequence	protein stability index
VRAVSITSFGFGQKGGQ [FAS2]	2.92 ± 0.19
VRCKDCGHRILLKARTK [RPC10]	2.55 ± 0.12
VRDKLDEYQAAVEQRKK [DPB4]	3.42 ± 0.097
VRDPWSIDFRTYRCSIK [SRB2]	2.35 ± 0.11
VRIIKHTLDIINVLTDQ [RPS5]	2.11 ± 0.053
VRIMKAKRNLPHTTLVN [CDC53]	1.9 ± 0.093
VRKYDLNICRQCFREKA [RPS29B]	2.12 ± 0.22
VRRRFARGMTSKPAGFM [RPS15]	2.9 ± 0.071
VRSGVSKSAPSKKISNT [YAR002W/NUP60]	3.28 ± 0.085
VRTDTTYPAGFMDVITL [RPS4A]	2.37 ± 0.11
VRVRTTKIPQIGDKFAS [RPB2]	2.55 ± 0.068
VSEKAFLLTQSKVSIEQ [RPN7]	3.21 ± 0.18
VSIRQNQYKLVFYQVTP [RPL22B]	1.95 ± 0.087
VSKADILLSHHRASPAD [POP5]	2.34 ± 0.15
VSKPAFSFGAKANEKKE [YJL041W/NSP1]	3.07 ± 0.15
VSLLKKNWQNVGSLVVK [RPL1A]	1.15 ± 0.049
VSNISCLTGTVAARMFH [ECM29]	1.66 ± 0.042
VSPTNVMGTPLTNMMSP [PGD1]	2.77 ± 0.1
VSSAKFSGKYLKYLTKK [RPL22B]	2.82 ± 0.25
VSSPESEKNKRQSKSSG [ITC1]	3.03 ± 0.059
VSSSSRHHRKTEKEEDA [ISW2]	2.66 ± 0.064
VSVIAPESQGQHEQQKQ [YMR153W/NUP53]	2.92 ± 0.085
VSVPVSGQKTNRQVMHK [SIR3]	2.58 ± 0.13
VSYKDYSIFLENENILI [SMC1]	2.62 ± 0.13
VTDDDRLWLKKVMEEEE [POP8]	1.43 ± 0.066

Sequence	protein stability index
VTEDGSIVTVVSSAKFS [RPL22B]	2.79 ± 0.1
VTFSFFNPQDTEENIKG [RRP45]	2.15 ± 0.081
VTGGKKALVLFVPVPAL [RPS7B]	1.58 ± 0.061
VTKLNVLVDEIKSQYYS [YIL149C/MLP2]	2.36 ± 0.066
VTLYWNNAKLLTFMTCN [ESC2]	1.89 ± 0.041
VTNSMRQTLAPYAVLSQ [YJR042W/NUP85]	2.33 ± 0.065
VTRFTTWNGSPFDNSTE [YJL039C/NUP192]	2.44 ± 0.079
VTRKQEDARRNPNPSSQ [RPC37]	3.33 ± 0.087
VTTFLNWCAEPEHDERK [CYT1]	3.41 ± 0.089
VTTFVFTGQGSQEQGMG [FAS1]	3.46 ± 0.15
VTVDQYVNVAISIYNML [SSN2]	1.72 ± 0.057
VTVSIKSRIVKVVGPRG [RPL9A]	2.08 ± 0.051
VVDILSANGYLNATTAM [BRR2]	2.75 ± 0.21
VVEKKTVGSSNGGLIHV [RPO21]	2.97 ± 0.081
VVRAASSLASQDVDFYK [RRP6]	2.13 ± 0.066
VVVDTVECAQHCIDYLR [SMC4]	3.06 ± 0.11
VYRFVTENAIEEKVIER [ISW2]	2.42 ± 0.11
WADIFAKALDGQNLKDL [RPP1A]	3.08 ± 0.11
WAMQGISYLQEVQCTST [PCI8]	3.32 ± 0.15
WAVISAFFREKGLVSQQ [RPB2]	3.38 ± 0.14
WCCRSGSAADTQAIADI [PRE3]	2.89 ± 0.12
WDGVIPTPAIIKPKPLW [RPO21]	1.88 ± 0.099
WDHPVIAGVITRSKRLS [CSN12]	2.86 ± 0.17
WDYLQLTVAMYINSDSV [RPO31]	1.32 ± 0.071
WHGVHRNPARLMETLRT [RPB2]	1.35 ± 0.073

Sequence	protein stability index
WIWDMNVHGSLEPFLLM [BRR2]	1.61 ± 0.06
WKAPSSIVLDSEHFDVN [DIS3]	3.14 ± 0.062
WKSPEWIQVFGLRTENV [MED6]	2.14 ± 0.084
WLIEGKLYVDAVHSIIA [YDL116W/NUP84]	1.2 ± 0.18
WLNGKMDSKGKITIGIQ [RGR1]	3.69 ± 0.12
WPIVNSKVYFNNQSKEK [RPN12]	2.87 ± 0.15
WQEYSSVFKGGMQNLIK [SRP14]	3.1 ± 0.12
WQVIITDDQGRVIDDNN [SIR3]	3.49 ± 0.11
WRAHDSSIVAIDWASPE [YGL100W/SEH1]	2.55 ± 0.092
WRFLQILRNGIDYLQRN [POP1]	3.05 ± 0.059
WSCIVVENWIIDDKGVL [ITC1]	2.18 ± 0.058
WTELCQREFKEIMEERN [NNF1]	2.98 ± 0.21
WTRGTGLMSANNIIAEG [FAS2]	2.98 ± 0.096
WVIRKQRRTNNSGVGSA [MED6]	2.48 ± 0.27
WVLHRDLKPANIMVTID [SSN3]	1.28 ± 0.18
WWTNSHHDGKLWNLNAY [PRP8]	2.9 ± 0.21
YAKSEFDNVASVFMPLI [ECM29]	3.04 ± 0.054
YALAAKDRFDIDEKSQF [RPN2]	1.73 ± 0.09
YAQRIGSGAPVYLTAVL [HTA1]	2.35 ± 0.058
YASLKLPNQIPGEYITT [YMR129W/POM152]	1.97 ± 0.049
YDIVKFLTVSKLWAEII [GRR1]	2.05 ± 0.041
YDKLPAGQNATVAVMSY [RET1]	1.17 ± 0.046
YDLVILKSGLPLSGLLF [YMR129W/POM152]	3.61 ± 0.17
YDPQRDKRFSGSLKLPN [RPL1A]	3.09 ± 0.065
